Results reported in the supplement of paper PMC10567573.

B1: ZNF263 (parent)
chain: KPYKCTLCGENFSHRSNLIRHQRI

Variants of: B1
Assay: protein stability index of a GFP-peptide fusion (GPS, HEK-293T) (PSI 1-6); higher = more stable
Conditions: c terminus: a fixed tail appended
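Also: lentivirally expressed fusions sorted by FACS into six bins by GFP to DsRed ratio, PSI derived from sequencing read proportions per bin multiplied by bin number.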

Row | Variant | protein stability index
1 | KPYKCTLCGWNFSHRSNLIRHQRI | 2.35
2 | KPYKCTLCGYNFSHRSNLIRHQRI | 1.69
3 | KPYKCTLCGEAFSHRSNLIRHQRI | 2.72
4 | KPYKCTLCGECFSHRSNLIRHQRI | 3.11
5 | KPYKCTLCGEDFSHRSNLIRHQRI | 2.23
6 | KPYKCTLCGEEFSHRSNLIRHQRI | 3.23
7 | KPYKCTLCGEFFSHRSNLIRHQRI | 2.61
8 | KPYKCTLCGEGFSHRSNLIRHQRI | 2.52
9 | KPYKCTLCGEHFSHRSNLIRHQRI | 3.33
10 | KPYKCTLCGEIFSHRSNLIRHQRI | 3.18
11 | KPYKCTLCGEKFSHRSNLIRHQRI | 2.98
12 | KPYKCTLCGELFSHRSNLIRHQRI | 2.69
13 | KPYKCTLCGEMFSHRSNLIRHQRI | 3.49
14 | KPYKCTLCGEPFSHRSNLIRHQRI | 1.8
15 | KPYKCTLCGEQFSHRSNLIRHQRI | 2.62
16 | KPYKCTLCGERFSHRSNLIRHQRI | 3.03
17 | KPYKCTLCGESFSHRSNLIRHQRI | 2.8
18 | KPYKCTLCGETFSHRSNLIRHQRI | 3.59
19 | KPYKCTLCGEVFSHRSNLIRHQRI | 2.83
20 | KPYKCTLCGEWFSHRSNLIRHQRI | 2.25
21 | KPYKCTLCGEYFSHRSNLIRHQRI | 2.8
22 | KPYKCTLCGENASHRSNLIRHQRI | 1.97
23 | KPYKCTLCGENCSHRSNLIRHQRI | 2.71
24 | KPYKCTLCGENDSHRSNLIRHQRI | 1.28

Row | Variant | protein stability index
25 | KPYKCTLCGENESHRSNLIRHQRI | 1.93
26 | KPYKCTLCGENGSHRSNLIRHQRI | 1.8
27 | KPYKCTLCGENHSHRSNLIRHQRI | 2.65
28 | KPYKCTLCGENISHRSNLIRHQRI | 2.41
29 | KPYKCTLCGENKSHRSNLIRHQRI | 1.58
30 | KPYKCTLCGENLSHRSNLIRHQRI | 2.1
31 | KPYKCTLCGENMSHRSNLIRHQRI | 2.01
32 | KPYKCTLCGENNSHRSNLIRHQRI | 1.96
33 | KPYKCTLCGENPSHRSNLIRHQRI | 1.57
34 | KPYKCTLCGENQSHRSNLIRHQRI | 2.18
35 | KPYKCTLCGENRSHRSNLIRHQRI | 1.54
36 | KPYKCTLCGENSSHRSNLIRHQRI | 1.99
37 | KPYKCTLCGENTSHRSNLIRHQRI | 1.66
38 | KPYKCTLCGENVSHRSNLIRHQRI | 3.52
39 | KPYKCTLCGENWSHRSNLIRHQRI | 2.12
40 | KPYKCTLCGENYSHRSNLIRHQRI | 1.44
41 | KPYKCTLCGENFAHRSNLIRHQRI | 2.87
42 | KPYKCTLCGENFCHRSNLIRHQRI | 2.4
43 | KPYKCTLCGENFDHRSNLIRHQRI | 2.12
44 | KPYKCTLCGENFEHRSNLIRHQRI | 2.52
45 | KPYKCTLCGENFFHRSNLIRHQRI | 2.26
46 | KPYKCTLCGENFGHRSNLIRHQRI | 2.59
47 | KPYKCTLCGENFHHRSNLIRHQRI | 2.38
48 | KPYKCTLCGENFIHRSNLIRHQRI | 2.67

Row | Variant | protein stability index
49 | KPYKCTLCGENFKHRSNLIRHQRI | 2.38
50 | KPYKCTLCGENFLHRSNLIRHQRI | 2.32
51 | KPYKCTLCGENFMHRSNLIRHQRI | 2.52
52 | KPYKCTLCGENFNHRSNLIRHQRI | 2.35
53 | KPYKCTLCGENFPHRSNLIRHQRI | 2.45
54 | KPYKCTLCGENFQHRSNLIRHQRI | 2.84
55 | KPYKCTLCGENFRHRSNLIRHQRI | 3.45
56 | KPYKCTLCGENFTHRSNLIRHQRI | 2.13
57 | KPYKCTLCGENFVHRSNLIRHQRI | 2.39
58 | KPYKCTLCGENFWHRSNLIRHQRI | 2.53
59 | KPYKCTLCGENFYHRSNLIRHQRI | 2.89
60 | KPYKCTLCGENFSARSNLIRHQRI | 2.56
61 | KPYKCTLCGENFSCRSNLIRHQRI | 2.68
62 | KPYKCTLCGENFSDRSNLIRHQRI | 2.68
63 | KPYKCTLCGENFSERSNLIRHQRI | 2.95
64 | KPYKCTLCGENFSFRSNLIRHQRI | 2.23
65 | KPYKCTLCGENFSGRSNLIRHQRI | 1.97
66 | KPYKCTLCGENFSIRSNLIRHQRI | 2.07
67 | KPYKCTLCGENFSKRSNLIRHQRI | 2.81
68 | KPYKCTLCGENFSLRSNLIRHQRI | 2.73
69 | KPYKCTLCGENFSMRSNLIRHQRI | 2.55
70 | KPYKCTLCGENFSNRSNLIRHQRI | 2.56
71 | KPYKCTLCGENFSPRSNLIRHQRI | 1.85
72 | KPYKCTLCGENFSQRSNLIRHQRI | 1.9

Row | Variant | protein stability index
73 | KPYKCTLCGENFSRRSNLIRHQRI | 2.41
74 | KPYKCTLCGENFSSRSNLIRHQRI | 3.56
75 | KPYKCTLCGENFSTRSNLIRHQRI | 2.75
76 | KPYKCTLCGENFSVRSNLIRHQRI | 2.43
77 | KPYKCTLCGENFSWRSNLIRHQRI | 1.43
78 | KPYKCTLCGENFSYRSNLIRHQRI | 3.16
79 | KPYKCTLCGENFSHASNLIRHQRI | 2.87
80 | KPYKCTLCGENFSHCSNLIRHQRI | 2.34
81 | KPYKCTLCGENFSHDSNLIRHQRI | 1.55
82 | KPYKCTLCGENFSHESNLIRHQRI | 2.69
83 | KPYKCTLCGENFSHFSNLIRHQRI | 2.96
84 | KPYKCTLCGENFSHGSNLIRHQRI | 2.08
85 | KPYKCTLCGENFSHHSNLIRHQRI | 2.15
86 | KPYKCTLCGENFSHISNLIRHQRI | 2.73
87 | KPYKCTLCGENFSHKSNLIRHQRI | 2.28
88 | KPYKCTLCGENFSHLSNLIRHQRI | 2.45
89 | KPYKCTLCGENFSHMSNLIRHQRI | 2.85
90 | KPYKCTLCGENFSHNSNLIRHQRI | 2.1
91 | KPYKCTLCGENFSHPSNLIRHQRI | 2.52
92 | KPYKCTLCGENFSHQSNLIRHQRI | 2.43
93 | KPYKCTLCGENFSHSSNLIRHQRI | 1.38
94 | KPYKCTLCGENFSHTSNLIRHQRI | 1.59
95 | KPYKCTLCGENFSHVSNLIRHQRI | 2.88
96 | KPYKCTLCGENFSHWSNLIRHQRI | 2.54

Row | Variant | protein stability index
97 | KPYKCTLCGENFSHYSNLIRHQRI | 2.45
98 | KPYKCTLCGENFSHRANLIRHQRI | 2.04
99 | KPYKCTLCGENFSHRCNLIRHQRI | 2.41
100 | KPYKCTLCGENFSHRDNLIRHQRI | 2.74
101 | KPYKCTLCGENFSHRENLIRHQRI | 2.53
102 | KPYKCTLCGENFSHRFNLIRHQRI | 2.02
103 | KPYKCTLCGENFSHRGNLIRHQRI | 1.94
104 | KPYKCTLCGENFSHRHNLIRHQRI | 2.76
105 | KPYKCTLCGENFSHRINLIRHQRI | 2.41
106 | KPYKCTLCGENFSHRKNLIRHQRI | 3.28
107 | KPYKCTLCGENFSHRLNLIRHQRI | 2.88
108 | KPYKCTLCGENFSHRMNLIRHQRI | 2.26
109 | KPYKCTLCGENFSHRNNLIRHQRI | 2.13
110 | KPYKCTLCGENFSHRPNLIRHQRI | 1.77
111 | KPYKCTLCGENFSHRQNLIRHQRI | 2.81
112 | KPYKCTLCGENFSHRRNLIRHQRI | 3.92
113 | KPYKCTLCGENFSHRTNLIRHQRI | 1.65
114 | KPYKCTLCGENFSHRVNLIRHQRI | 1.87
115 | KPYKCTLCGENFSHRWNLIRHQRI | 2.43
116 | KPYKCTLCGENFSHRYNLIRHQRI | 2.91
117 | KPYKCTLCGENFSHRSALIRHQRI | 3.59
118 | KPYKCTLCGENFSHRSCLIRHQRI | 2.47
119 | KPYKCTLCGENFSHRSDLIRHQRI | 3.88
120 | KPYKCTLCGENFSHRSELIRHQRI | 3.31

Row | Variant | protein stability index
121 | KPYKCTLCGENFSHRSFLIRHQRI | 2.08
122 | KPYKCTLCGENFSHRSGLIRHQRI | 3.16
123 | KPYKCTLCGENFSHRSHLIRHQRI | 3.64
124 | KPYKCTLCGENFSHRSILIRHQRI | 2.93
125 | KPYKCTLCGENFSHRSKLIRHQRI | 3.28
126 | KPYKCTLCGENFSHRSLLIRHQRI | 2.77
127 | KPYKCTLCGENFSHRSMLIRHQRI | 2.87
128 | KPYKCTLCGENFSHRSPLIRHQRI | 1.87
129 | KPYKCTLCGENFSHRSQLIRHQRI | 2.9
130 | KPYKCTLCGENFSHRSRLIRHQRI | 2.64
131 | KPYKCTLCGENFSHRSSLIRHQRI | 2.99
132 | KPYKCTLCGENFSHRSTLIRHQRI | 2.65
133 | KPYKCTLCGENFSHRSVLIRHQRI | 1.7
134 | KPYKCTLCGENFSHRSWLIRHQRI | 2.07
135 | KPYKCTLCGENFSHRSYLIRHQRI | 3.12
136 | KPYKCTLCGENFSHRSNAIRHQRI | 2.35
137 | KPYKCTLCGENFSHRSNCIRHQRI | 3.22
138 | KPYKCTLCGENFSHRSNDIRHQRI | 1.74
139 | KPYKCTLCGENFSHRSNEIRHQRI | 1.81
140 | KPYKCTLCGENFSHRSNFIRHQRI | 2.56
141 | KPYKCTLCGENFSHRSNGIRHQRI | 1.98
142 | KPYKCTLCGENFSHRSNHIRHQRI | 2.93
143 | KPYKCTLCGENFSHRSNIIRHQRI | 1.95
144 | KPYKCTLCGENFSHRSNKIRHQRI | 2.19

Row | Variant | protein stability index
145 | KPYKCTLCGENFSHRSNMIRHQRI | 1.93
146 | KPYKCTLCGENFSHRSNNIRHQRI | 2.21
147 | KPYKCTLCGENFSHRSNPIRHQRI | 1.88
148 | KPYKCTLCGENFSHRSNQIRHQRI | 2.42
149 | KPYKCTLCGENFSHRSNRIRHQRI | 2.81
150 | KPYKCTLCGENFSHRSNSIRHQRI | 1.77
151 | KPYKCTLCGENFSHRSNTIRHQRI | 1.72
152 | KPYKCTLCGENFSHRSNVIRHQRI | 2.59
153 | KPYKCTLCGENFSHRSNWIRHQRI | 2.19
154 | KPYKCTLCGENFSHRSNYIRHQRI | 2.38
155 | KPYKCTLCGENFSHRSNLARHQRI | 2.57
156 | KPYKCTLCGENFSHRSNLCRHQRI | 4.18
157 | KPYKCTLCGENFSHRSNLDRHQRI | 2.74
158 | KPYKCTLCGENFSHRSNLERHQRI | 2.89
159 | KPYKCTLCGENFSHRSNLFRHQRI | 1.88
160 | KPYKCTLCGENFSHRSNLGRHQRI | 3.08
161 | KPYKCTLCGENFSHRSNLHRHQRI | 2.33
162 | KPYKCTLCGENFSHRSNLKRHQRI | 2.65
163 | KPYKCTLCGENFSHRSNLLRHQRI | 2.32
164 | KPYKCTLCGENFSHRSNLMRHQRI | 2.62
165 | KPYKCTLCGENFSHRSNLNRHQRI | 1.77
166 | KPYKCTLCGENFSHRSNLPRHQRI | 2.11
167 | KPYKCTLCGENFSHRSNLQRHQRI | 2.44
168 | KPYKCTLCGENFSHRSNLRRHQRI | 2.9

Row | Variant | protein stability index
169 | KPYKCTLCGENFSHRSNLSRHQRI | 1.88
170 | KPYKCTLCGENFSHRSNLTRHQRI | 2.5
171 | KPYKCTLCGENFSHRSNLVRHQRI | 2.54
172 | KPYKCTLCGENFSHRSNLWRHQRI | 1.5
173 | KPYKCTLCGENFSHRSNLYRHQRI | 2.3
174 | KPYKCTLCGENFSHRSNLIAHQRI | 2.43
175 | KPYKCTLCGENFSHRSNLICHQRI | 2.45
176 | KPYKCTLCGENFSHRSNLIDHQRI | 2.84
177 | KPYKCTLCGENFSHRSNLIEHQRI | 3.12
178 | KPYKCTLCGENFSHRSNLIFHQRI | 2.58
179 | KPYKCTLCGENFSHRSNLIGHQRI | 2.37
180 | KPYKCTLCGENFSHRSNLIHHQRI | 1.76
181 | KPYKCTLCGENFSHRSNLIIHQRI | 1.81
182 | KPYKCTLCGENFSHRSNLIKHQRI | 2.67
183 | KPYKCTLCGENFSHRSNLILHQRI | 2.15
184 | KPYKCTLCGENFSHRSNLIMHQRI | 2.22
185 | KPYKCTLCGENFSHRSNLINHQRI | 2.38
186 | KPYKCTLCGENFSHRSNLIPHQRI | 1.7
187 | KPYKCTLCGENFSHRSNLIQHQRI | 2.6
188 | KPYKCTLCGENFSHRSNLISHQRI | 1.8
